In the Human Domainome abundance scans (Beltran et al. 2025):

B1: Zinc finger MYM-type protein 3, residues 405 to 444; numbered along this chain, Q14202 (parent)
chain: DATRCSICQKTGEVLHEVSNGSVVHRLCSDSCFSKFRANK

Variants of: B1
Experiment: abundance fitness (aPCA) (normalised: wild type 0, dead -1); higher = more abundant; growth selection in yeast, the domain comes from the species named
Conditions: Homo sapiens

Abundance fitness: each site, then its substitutions
C28: H -0.733; Q -0.809; N -0.765; I -0.95; G -0.623; R -0.873; W -1.02; L -0.886; P -0.639; V -0.808; F -1.09
V18: K -0.267; W -0.228; G -0.42; L -0.157; I -0.067; P -0.258; A -0.183; F -0.095
S19: P 0.023; E 0.066; T -0.009; N 0.052; R -0.078; G -0.1; D -0.078; Q 0.059; M -0.12
D30: T -0.219; L -0.398; G -0.269; Q -0.079; H -0.425; W -1.07; S -0.387; V -0.384
I7: H -0.267; K -0.508; D -0.376; V -0.037; N 0.209; G -0.12; W -0.218; E -0.332
F33: C -0.11; E 0.175; L 0.256; H 0.073; W 0.154; A 0.134
G21: S -0.193; Y -0.389; Q 0.043; C -0.335; W -0.701; H -0.235; P -0.392; M -0.243
C32: P -0.763; N -0.808; F -0.968; K -0.727; S -0.645; D -0.301
C8: N -0.779; D -0.895; Y -0.774; T -0.61; E -0.85; K -0.999; W -1.19; S -0.927; Q -0.993; M -1.21; I -0.978
S34: Q 0.382; P -0.114; E 0.32; L -0.023; D 0.203; A 0.203; F -0.18
S22: Y -0.303; N 0.029; E 0.006; I -0.153; Q -0.001; A -0.109; R -0.136; T 0.018; V -0.571
N20: G -0.21; E 0.055; P -0.559; Q -0.004; F -0.431; R -0.135; C -0.517; I 0.047
R26: N -0.195; Q 0.097; M -0.12; A -0.02; P -0.074; F -0.177; G -0.117; Y -0.339; E -0.283; T -0.048; D -0.606
R37: W -0.288; N 0.135; H 0.137; Y -0.283; V -0.23; Q 0.106
E13: T -0.111; V -0.298; F 0.036; D -0.2; K -0.049; C -0.855; R -0.19; I -0.448
R4: A -0.2; V -0.193; C -0.012; T -0.125; E -0.211; L -0.32; N 0.122; P -0.335
C5: W -1.06; S -0.922; L -0.835; P -1.02; D -0.79; V -0.999; T -0.836; G -0.914
K40: Y -0.072; R 0.023; I 0.012; G 0.211; H 0.222; S 0.119; T 0.138; F -0.128
S31: F -0.166; C -0.185; R 0.047; I 0.064; M -0.006; N -0.089
A2: F 0.186; N 0.461; H 0.041; P -0.225; I 0.327; Q 0.285; D 0.305; R -0.089; E -0.013; K 0.243
K35: N 0.03; C -0.959; P -0.471; E 0.166; S 0.02; H -0.03; T 0.058; F 0.052; Q 0.146
N39: L 0.037; W -0.192; T 0.112; E 0.128; R 0.081; G 0.017; V 0.058; A 0.015
S6: L -0.312; E -0.103; G -0.252; F -0.012; D -0.302; I -0.021; A 0.104; R -0.228; W -0.182
H25: Y -0.385; W -0.247; G -0.164; E 0.205; N -0.031; K -0.006; S -0.138
Q9: T -0.195; W -0.234; C -0.215; K -0.05; R -0.288
V24: W -0.292; C -0.206; G -0.255
L27: R -0.393; D -0.569; A -0.393; E -0.352; S -0.447; H -0.382; M 0.033; Q -0.294; V -0.22; P -0.458
K10: M -0.232; G -0.09; D -0.49; T -0.277; Y -0.436; S -0.231; E -0.088; P -0.877; W -0.479; F -0.595
T3: N 0.025; G 0.091; A -0.366; Y -0.025; M 0.426; D -0.088; S -0.06; K 0.272
T11: P -0.499; R -0.287; S -0.315; I -0.203; H 0.088; W -0.627; A -0.27; K -0.354; F -0.221
D1: V 0.083; N 0.142; A -0.182; L -0.07; R -0.165; M 0.112; F -0.219; W -0.504; Q -0.251
V14: K -0.43; A -0.173; E -0.453; H -0.667; T -0.033; P -0.057; G -0.08; L -0.344; M -0.029; Y -0.461; F -0.068
E17: W -0.959; V -0.487; C -0.358; G -0.594; Y -1.02; I -0.458; D -0.251; H -0.285; F -0.606; P -0.697; M -0.395
G12: R -0.165; N -0.511; S -0.115; T -0.092; D -0.311; I -0.21; W -0.639; M -0.089; V -0.137; F -0.414; E -0.083
V23: I -0.087; A -0.085; L -0.317; R -0.013; G 0.018; E 0.103; Y -0.166; M 0.13; C -0.937
F36: W 0.147; A 0.042; E 0.029; T -0.176; I -0.061; G -0.206; M -0.296; S -0.178
A38: N -0.461; W -0.353; M -0.033; K -0.228; F -0.259; D -0.139; H -0.524; G 0.011; I -0.215
H16: Q -0.053; F -0.208; S -0.319; L -0.645; D -0.379; R -0.121; G -0.306
L15: T -0.141; P -0.033; H 0.017; R 0.07; N -0.038; G -0.153; V -0.034; Y -0.142; S 0.047
S29: R -0.684; I -0.857; V -0.596; D -0.404; H -0.683; Q -0.427; T -0.771; A -0.363
